# Data published in publication PMC7555306, “Domain Organization in Plant Blue-Light Receptor Phototropin2 of Arabidopsis thaliana Studied by Small-Angle X-ray Scattering” (International Journal of Molecular Sciences, 2020).
# Molecular target: the molecule itself
# Assay: SAXS; in solution at 293 K, at least three specimen concentrations, extrapolated to infinite dilution; in the dark (D450), under blue-light irradiation (S390) and after dark reversion; apparent molecular weight from I(S=0,C=0) against hen egg-white lysozyme or the buffer's scattering
row,Protein,stoichiometry N
1,"Asp720Asn-mutated full-length phototropin2 of Arabidopsis thaliana (natural protein, phototropin2 (phot2), Arabidopsis thaliana, full length, residues 1-915, with Asp720Asn; also called phot2; full-length phot2) MERPRAPPSPLNDAESLSERRSLEIFNPSSGKETHGSTSSSSKPPLDGNNKGSSSKWMEFQDSAKITERTAEWGLSAVKPDSGDDGISFKLSSEVERSKNMSRRSSEESTSSESGAFPRVSQELKTALSTLQQTFVVSDATQPHCPIVYASSGFFTMTGYSSKEIVGRNCRFLQGPDTDKNEVAKIRDCVKNGKSYCGRLLNYKKDGTPFWNLLTVTPIKDDQGNTIKFIGMQVEVSKYTEGVNDKALRPNGLSKSLIRYDARQKEKALDSITEVVQTIRHRKSQVQESVSNDTMVKPDSSTTPTPGRQTRQSDEASKSFRTPGRVSTPTGSKLKSSNNRHEDLLRMEPEELMLSTEVIGQRDSWDLSDRERDIRQGIDLATTLERIEKNFVISDPRLPDNPIIFASDSFLELTEYSREEILGRNCRFLQGPETDQATVQKIRDAIRDQREITVQLINYTKSGKKFWNLFHLQPMRDQKGELQYFIGVQLDGSDHVEPLQNRLSERTEMQSSKLVKATATNVDEAVRELPDANTRPEDLWAAHSKPVYPLPHNKESTSWKAIKKIQASGETVGLHHFKPIKPLGSGDTGSVHLVELKGTGELYAMKAMEKTMMLNRNKAHRACIEREIISLLDHPFLPTLYASFQTSTHVCLITDFCPGGELFALLDRQPMKILTEDSARFYAAEVVIGLEYLHCLGIVYRDLKPENILLKKDGHIVLANFDLSFMTTCTPQLIIPAAPSKRRRSKSQPLPTFVAEPSTQSNSFVGTEEYIAPEIITGAGHTSAIDWWALGILLYEMLYGRTPFRGKNRQKTFANILHKDLTFPSSIPVSLVGRQLINTLLNRDPSSRLGSKGGANEIKQHAFFRGINWPLIRGMSPPPLDAPLSIIEKDPNAKDIKWEDDGVLVNSTDLDIDLF",2
2,"LOV1 fragment of Arabidopsis thaliana phototropin2 (domain or fragment, UniProt P93025 117-265, looked up, phototropin2 (phot2), Arabidopsis thaliana, LOV1 fragment, residues 117-265 of the 915-residue protein; also called phot2 LOV1) FPRVSQELKTALSTLQQTFVVSDATQPHCPIVYASSGFFTMTGYSSKEIVGRNCRFLQGPDTDKNEVAKIRDCVKNGKSYCGRLLNYKKDGTPFWNLLTVTPIKDDQGNTIKFIGMQVEVSKYTEGVNDKALRPNGLSKSLIRYDARQK",2
